# Measurements published in patent US12383572B2, “Administration of an anti-activin-a compound to a subject” (AMGEN INC., priority 2013, dated 2025).
# B1: sActRIIB: extracellular domain of human activin type-2B receptor fused to IgG2 Fc; full length SEQ ID NO: 21 (Table 9) (protein, listed as Homo sapiens)
# chain: ETRWCIYYNANWELERTNQSGLERCEGEQDKRLHCYASWRNSSGTIELVKKGCWLDDFNCYDRQECVATEENPQVYFCCCEGNFCNERFTHLPEAGGPEVTYEPPPTAPTGGGGSVECPPCPAPPVAGPSVFLFPPKPKDTLMISRTPEVTCVVVDVSHEDPEVQFNWYVDGVEVHNAKTKPREEQFNSTFRVVSVLTVVHQDWLNGKEYKCKVSNKGLPAPIEKTISKTKGQPREPQVYTLPPSREEMTKNQVSLTCLVKGFYPSDIAVEWESNGQPENNYKTTPPMLDSDGSFFLYSKLTVDKSRWQQGNVFSCSVMHEALHNHYTQKSLSLSPGK
# Experiments:
# [1] = system: Smad2 signaling; test: Western blot of phospho-Smad2 in inh-KO tumors; type: in vivo, mouse; settings: inh-KO mice, increase vs WT controls
# Protocol: (§1) Protein extracts were prepared from cell cultures or tissues in T-PER tissue protein extraction reagent (Pierce) containing a mixture of protease inhibitors (Roche). A pool of 50 μg total protein for each group containing equal amounts of protein extract isolated from individual animals was separated by NuPAGE 4-12% Bis-Tris gel (Invitrogen) and transferred to PVDF. The membranes were probed with primary antibodies against total Smad2, p-Smad2 or E-cadherin (1:1000; Cell Signaling), endoglin, osteopontin (1:500; R & D Systems), IGFBP-1, IGFBP-2 (1:500; Abcam) followed by HRP-conjugated secondary antibody (1:2000; Cell Signaling). The membranes were stripped and re-probed with antibody against α-tubulin (1:1000; Cell Signaling).
# [2] = system: E-cadherin; test: E-cadherin Western blot and immunostaining in inh-KO ovarian tumors; type: in vivo, mouse; settings: inh-KO mice
# Protocol: as §1
# Zinc-formalin fixed paraffin tumor tissue sections of 4 μm in thickness were prepared. The sections were subjected to antigen retrieval by microwave 3 min in Unmask solution (Vector H-3300) followed by incubation in 10 μg/ml Proteinase-K for 20 min and in 1% H2O2 in dH2O for 10 min at room temperature. The sections were further incubated in 0.1% Tween-20 in PBS for 3 min to permeabilize the cell membrane and in goat serum for 30 min to block non-specific binding. […] The immunostained tissue sections were analyzed and photographed using a Nikon Eclipse 90i microscope equipped with DS-Ril camera. […]
# [3] = system: caspase-3; test: Active caspase-3 immunostaining of inh-KO tumor sections; type: in vivo, mouse; settings: ovarian and testicular tissue sections, regions of residual tumor cells
# Protocol: Zinc-formalin fixed paraffin tumor tissue sections of 4 μm in thickness were prepared. The sections were subjected to antigen retrieval by microwave 3 min in Unmask solution (Vector H-3300) followed by incubation in 10 μg/ml Proteinase-K for 20 min and in 1% H2O2 in dH2O for 10 min at room temperature. The sections were further incubated in 0.1% Tween-20 in PBS for 3 min to permeabilize the cell membrane and in goat serum for 30 min to block non-specific binding. The sections were then incubated at room temperature with specific primary antibody for 3 hours followed by incubation in biotinylated or fluorescently labeled secondary antibody. Substrate developed in Vector SG kit (SK-4700) or DAB and nuclear-counterstained in Vector Fast Red (H-3403) or in hematoxylin. The immunostained tissue sections were analyzed and photographed using a Nikon Eclipse 90i microscope equipped with DS-Ril camera. The primary antibodies used and their dilutions are as follows: VEGF (BD Pharmingen 550549) 1:20 or VEGF (Abcam ab46154) 1:100, active caspase-3 (Abcam ab32042) 1:50, Ang-1 (Abcam ab8451) 1:500, osteopontin (Abcam ab8448) 1:200, CD-31 (Abcam ab56299) 1:100, E-cadherin (Abcam ab76319) 1:80. For immunofluorescence staining, FITC-conjugated secondary antibody (Invitrogen) was added at 1:50 dilution in PBS and incubated for 30 min. Cell nuclei were counterstained with Vectashield PE (Vector).
# [4] = system: TOV-21G xenografts; test: TOV-21G xenograft, sActRIIB and 5-FU chemotherapy combination; type: in vivo, human; settings: nude mice; sActRIIB 10 mg/kg SC 1x/week, 5-FU 50 mg/kg IP 3 cycles, alone or together
# Protocol: TOV-21G xenograft. 5×10^6 TOV-21G ovarian cancer cells were implanted subcutaneously into individual female athymic nu/nu mice (Harlan). Treatment was initiated at day 12 after tumor implantation, when the average tumor volume reached approximately 150 mm^3. The mice received PBS, sActRIIB (30 mg/kg, SC, 1×/week) or activin-A antibody (30 mg/kg, SC, 2×/week). In a separate chemotherapy combination experiment, the mice were treated with PBS, sActRIIB (10 mg/kg, SC, 1×/week), 5-FU (50 mg/kg, IP, 3 cycles, 4 daily injections per cycle) or sActRIIB and 5-FU combination at the same doses above. For all xenograft experiments, the tumor sizes were measured longitudinally by using an electronic caliper. Immediately prior to the 1st dose, the tumor-bearing mice were randomized to ensure even distribution in tumor sizes across different groups. Tumor volumes (mm^3) were calculated as tumor length (mm)×tumor width (mm)×tumor height (mm). Tumor weights were determined by necropsy.
# [5] = system: TOV-21G cancer cells; test: In vitro proliferation assay (IncuCyte live cell imaging); type: cell-based, human; settings: increasing concentrations
# Protocol: In vitro growth rates of TOV-21G cancer cells were analyzed by using a real-time live cell imaging system (IncuCyte) following the manufacturer's recommended protocol.
# [6] = system: G361 human melanoma xenografts; test: G361 melanoma xenograft growth in nude mice; type: in vivo; settings: sActRIIB 20 mg/kg SC 1x/week from day 14
# Protocol: G361 and 5637 xenografts. 5×10^6 G361 melanoma cells and 5637 bladder carcinoma cells, respectively, were inoculated SC into individual athymic nu/nu mice (Harlan Inc). Treatment was initiated 4 days after 5637 implantation and 14 days after G361 implantation, when the tumor volumes reached 130 mm^3−150 mm^3. 5637-implanted mice received PBS or activin-A antibody (10 mg/kg, SC, 2×/week). G361-implanted mice received PBS or sActRIIB (20 mg/kg, SC, 1×/week).
# For all xenograft experiments, the tumor sizes were measured longitudinally by using an electronic caliper. Immediately prior to the 1st dose, the tumor-bearing mice were randomized to ensure even distribution in tumor sizes across different groups. Tumor volumes (mm^3) were calculated as tumor length (mm)×tumor width (mm)×tumor height (mm). Tumor weights were determined by necropsy.
# [7] = sActRIIB single dose, withdrawal and re-administration in female Inhα KO mice: body weight; type: in vivo, mouse
# Protocol: Eleven-to-fourteen-week-old female Inhα KO mice with body weight from 19.41 to 26.82 grams were subcutaneously (SC) injected with either 30 mg/kg sActRIIB or PBS. Age-matched WT littermate control mice were injected with PBS and served as baseline controls. The study ended by necropsy 2 weeks after injections. Two cohorts of mice were used in the study. Eleven-to-thirteen-week-old female Inhα KO mice with body weight from 17.7 to 27.4 grams were SC injected with either 30 mg/kg sAcLRIIB or PBS. Age-matched WT littermate control mice were injected with PBS and served as baseline controls. The withdrawal lasted for 8 weeks. At the end of the withdrawal, the sActRIIB treated mice were divided by balanced body weight into 2 groups (Group 3 and Group 4).
# Group 2 and Group 3 were euthanized to examine the ovarian tumors. Group 4 received another dose of 30 mg/kg sActRIIB and the mice were euthanized together with the WT mice 4 weeks later (total 12 weeks). Mouse body weights were recorded once per week up to 12 weeks. For necropsy, mice were euthanized in a CO2 chamber. Normal ovaries in WT mice and ovarian tumors in Inhα KO mice were collected and weighed. All results were expressed as the mean±standard error of the mean (SEM). Statistical significance of difference between groups was analyzed using Student's 2-tailed t-test on MS Excel 5.0 software. […]
molecule,measurement,setting,value
B1,phospho-Smad2 in the tumor tissues,[1],eliminated this increase in phospho-Smad2
same,E-cadherin immunoreactivity in ovarian sections,[2],reappearance of distinctive E-cadherin immunoreactivity
same,E-cadherin protein in ovarian tumors (Western blot),[2]; single injection,dramatically restored the lost E-cadherin
same,active caspase-3 immunostaining,[3],strong immunostaining of active caspase-3
same,rate of tumor growth,[4],decreased the rate of tumor growth significantly
same,TOV-21G cell proliferation in vitro,[5],no direct effect on TOV-21G cell proliferation in vitro
same,growth rate and size of G361 xenografts,[6],significantly decreased the growth rates and sizes
same,"body weight, first 4 weeks after single dose",[7]; 30 mg/kg SC single dose,sustained weight gain in Inhα KO mice that exceeded the level of WT littermate control
same,body weight after re-administration at week 8 (up to week 12),[7]; second single dose 30 mg/kg,stimulated further weight gain
